Measurements reported in patent US20090285803A1 (published 2009).

T1: Nogo Receptor (human, UniProt Q9BZR6 27-447)
T1 construct: whole, on cells; also called NgR; NgR1
T1 sequence (looked up): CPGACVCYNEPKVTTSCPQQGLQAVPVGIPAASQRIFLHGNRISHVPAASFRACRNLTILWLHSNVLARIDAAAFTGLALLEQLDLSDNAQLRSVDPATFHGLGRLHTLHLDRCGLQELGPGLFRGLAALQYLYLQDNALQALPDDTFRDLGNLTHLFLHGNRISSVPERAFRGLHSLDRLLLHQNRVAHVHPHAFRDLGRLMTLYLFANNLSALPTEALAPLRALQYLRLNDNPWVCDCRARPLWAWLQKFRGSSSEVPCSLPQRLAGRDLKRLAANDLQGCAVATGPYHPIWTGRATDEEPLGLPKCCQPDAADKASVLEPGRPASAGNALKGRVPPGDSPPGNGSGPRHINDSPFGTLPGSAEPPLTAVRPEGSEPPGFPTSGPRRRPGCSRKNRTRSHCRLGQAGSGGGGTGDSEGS

B1: Homo sapiens leukocyte immunoglobulin-like receptor, subfamily B (with TM and ITIM domains), member 2 (LILRB2) (receptor)
chain: QTGTIPKPTLWAEPDSVITQGSPVTLSCQGSLEAQEYRLYREKKSASWITRIRPELVKNGQFHIPSITWEHTGRYGCQYYSRARWSELSDPLVLVMTGAYPKPTLSAQPSPVVTSGGRVTLQCESQVAFGGFILCKEGEDEHPQCLNSQPHARGSSRAIFSVGPVSPNRRWSHRCYGYDLNSPYVWSSPSDLLELLVPGVSKKPSLSVQPGPVVAPGESLTLQCVSDVGYDRFVLYKEGERDLRQLPGRQPQAGLSQANFTLGPVSRSYGGQYRCYGAYNLSSEWSAPSDPLDILITGQIHGTPFISVQPGPTVASGENVTLLCQSWRQFHTFLLTKAGAADAPLRLRSIHEYPKYQAEFPMSPVTSAHAGTYRCYGSLNSDPYLLSHPSEPLELVVSGPSMGSSPPPTGPISTPAGPEDQPLTPTGSDPQSGLGRHLGVVIGILVAVVLLLLLLLLLFLILRHRRQGKHWTSTQRKADFQHPAGAVGPEPTDRGLQWRSSPAADAQEENLYAAVKDTQPEDGVEMDTRAAASEAPQDVTYAQLHSLTLRRKATEPPPSQEREPPAEPSIYATLAIH
notes: Full-length human cDNA clone expressed in COS7 cells; also called MIG10; ILT4
B2: AP-Nogo66 (ligand, UniProt Q9NQC3 1055-1120, looked up)
chain: RIYKGVIQAIQKSDEGHPFRAYLESEVAISEELVQKYSNSALGHVNCTIKELRRLFLVDDLVDSLK
notes: Produced in conditioned medium of 293 cells; also called Alkaline Phosphatase-Nogo66 fusion; not shown: Alkaline Phosphatase (AP)

Key:
AP-Nogo66 = target: B2; assay: expression cloning; AP-fusion bait (20-50 nM) on transfected COS7 cells, chromogenic AP staining
From the text: (§1) To identify novel receptors for inhibitory myelin proteins, an expression cloning approach was taken. As bait, constructs were generated that fused Alkaline Phosphatase (AP) to the N- and/or C-terminus of the following characterized myelin inhibitors (human cDNA used): Nogo66, two additional inhibitory domains of NogoA (NiRD2 and NiG20) (Oertle T, J Neurosci. 2003, 23(13): 5393-406), MAG, and OMgp. These constructs were transfected into 293 cells to produce conditioned medium (in DMEM/2% FBS) containing the bait proteins. The cDNA library used in the screen was comprised of full-length human cDNA clones in expression-ready vectors generated by Origene. These cDNAs were compiled, arrayed, and pooled. Pools of approximately 100 cDNA's were transiently transfected into COS7 cells.
(§2) In particular, on Day 1, COS7 cells were plated at a density of 85, 000 cells per well in 12-well plates. On Day 2, 1 mg of pooled cDNA's were transfected per well using the lipid-based transfection reagent FuGENE 6 (Roche). On Day 4, screening was performed. […] The cells were washed once in AP Buffer (100 mM NaCl, 5 mM MgCl₂, 100 mM Tris pH 9.5), and incubated in chromogenic substrate (Western Blue, Promega), and analyzed for presence of reaction product one hour after incubation, and again after overnight incubation. […]

Nogo Receptor = target: T1, Nogo Receptor; assay: as above
From the text: as §1, §2

Row | binding result (AP-Nogo66) | binding result (Nogo Receptor) | Binder
1 | binds | – | B1
2 | – | binds | B2
